Laboratory results taken from patent US20230303695A1 (SHANGHAI XBH BIOTECHNOLOGY, published 2023).
Numbering of substitutions follows the chain as printed.

B1: L2-10 (antibody, V domains shown)
VH: EVQLVESGGGLEQPGGSLRLSCAASGFTFRDYAMTWVRQAPGKGLEWVSSISGSGGSTYYADSVKGRFTISRDNSKNTLYLQMNSLRAEDTAIYYCARGEYSSGWPSWFDPWGQGTLVTVSS
VL: DIQMTQSPSSLSASVGDRVTITCRASRTVGTFLNWYQQKPGKAPKALILHTSILEGGVPSRFSGSGSGTDFTLTISSLQPEDIATYYCQQSHDVPRTFGQGTKVEIK
notes: also called L2-10-IgG1
B2: L2-01 (antibody, V domains shown)
VH: B1 VH with A24G, S57N
VL: EIVLTQSPSSLSASVGDRVTISCRASRTVGTFLNWYQQRPGKPPQALILGVSILEGGVSSRFSGAGSGTEFSLTISSLQPEDIGTYYCQQSHDVPRTFGQGTKVDLR
notes: Expressed in CHO cells; also called L2 antibody; L2-01-IgG1
B3: KLRC1 alone on CT26 cells (receptor)
chain: not shown
notes: whole, on cells; also called KLRC1 monomer
B4: L1-20 (antibody, IgG1, V domains shown)
VH: QVQLVESGGGVVQPGRSLRLSCAASGFTFSTYGMHWVRQAPGKGLEWVAVIWDDGSYKYYGDSVKGRFTISRDNSKNTLYLQMNSLRAEDTAVYYCARDGSGWGYAFDIWGQGTLVTVSS
VL: DIQLTQSPSSLSASVGDRVTITCQASQDIEWWLNWYQQKPGKAPKLLIYGSPNLETGVPSRFSGSGSGTDFTFTISSLQPEDIATYYCQQYDSFPYTFGQGTKVEIK
notes: also called L1-20-IgG1
B5: L1-01 (antibody, V domains shown)
VH: B4 VH with L115M
VL: DIQLTQSPSSLSASVGDRVTITCQASQDISEYLNWYQHKPGKAPNPLVFDAANLETGVPPRFSATGSGTDFSLTITSLQPEDFATYYCQQYDSFPYTFGQGTRLDIK
notes: Expressed in CHO cells; also called L1 antibody; L1-01-IgG1
B6: KLRD1 alone on CT26 cells (receptor, UniProt Q13241 1-179, looked up)
chain: MAVFKTTLWRLISGTLGIICLSLMSTLGILLKNSFTKLSIEPAFTPGPNIELQKDSDCCSCQEKWVGYRCNCYFISSEQKTWNESRHLCASQKSSLLQLQNTDELDFMSSSQQFYWIGLSYSEEHTAWLWENGSALSQYLFPSFETFNTKNCIAYNPNGNALDESCEDKNRYICKQQLI
notes: whole, on cells; also called KLRD1 monomer

Key:
[1] = biological target: T1, recombinant human IGSF8 extracellular domain tagged by a human Fc region (IGSF8-hFc) (human, UniProt Q969P0 28-579, biotin label in Examples 17, 18 and 28 (site not given)); assay: SPR, Ab captured
T1 construct: also called IGSF8-Fc fusion protein; IGSF8-hFc-biotin; not shown: human Fc region
T1 sequence: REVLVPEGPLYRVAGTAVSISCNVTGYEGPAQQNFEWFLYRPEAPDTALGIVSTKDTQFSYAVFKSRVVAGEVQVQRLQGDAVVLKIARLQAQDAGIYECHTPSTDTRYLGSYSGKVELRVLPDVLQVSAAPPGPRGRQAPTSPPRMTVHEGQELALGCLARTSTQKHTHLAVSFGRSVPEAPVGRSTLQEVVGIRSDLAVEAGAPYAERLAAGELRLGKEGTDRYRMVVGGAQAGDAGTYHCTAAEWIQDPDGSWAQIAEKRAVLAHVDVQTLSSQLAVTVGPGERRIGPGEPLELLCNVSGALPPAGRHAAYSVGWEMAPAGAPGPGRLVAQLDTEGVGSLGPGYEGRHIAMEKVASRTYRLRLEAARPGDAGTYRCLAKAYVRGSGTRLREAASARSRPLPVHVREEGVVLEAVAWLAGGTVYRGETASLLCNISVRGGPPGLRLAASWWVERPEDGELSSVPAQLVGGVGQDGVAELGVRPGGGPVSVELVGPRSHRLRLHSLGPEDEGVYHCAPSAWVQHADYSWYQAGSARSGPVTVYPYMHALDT
Protocol: The binding affinities of the L1 and L2 antibodies to IGSF8 recombinant protein were determined by surface plasmon resonance (SPR). Briefly, anti-human Fab antibody was imobilized on acarboxyl-derivatized SPR chip surface, and the antibodies were captured on the resulting surface at 5 μg/ml for 30 seconds.

[2] = biological target: T2, human IGSF8 expressed on the cell surface (human, UniProt Q969P0 28-613); assay: FACS on CT26 cells expressing IGSF8
T2 construct: whole, on cells; also called human IGSF8 on CT26 cells; IGSF8 on MC38 cells
T2 sequence (looked up): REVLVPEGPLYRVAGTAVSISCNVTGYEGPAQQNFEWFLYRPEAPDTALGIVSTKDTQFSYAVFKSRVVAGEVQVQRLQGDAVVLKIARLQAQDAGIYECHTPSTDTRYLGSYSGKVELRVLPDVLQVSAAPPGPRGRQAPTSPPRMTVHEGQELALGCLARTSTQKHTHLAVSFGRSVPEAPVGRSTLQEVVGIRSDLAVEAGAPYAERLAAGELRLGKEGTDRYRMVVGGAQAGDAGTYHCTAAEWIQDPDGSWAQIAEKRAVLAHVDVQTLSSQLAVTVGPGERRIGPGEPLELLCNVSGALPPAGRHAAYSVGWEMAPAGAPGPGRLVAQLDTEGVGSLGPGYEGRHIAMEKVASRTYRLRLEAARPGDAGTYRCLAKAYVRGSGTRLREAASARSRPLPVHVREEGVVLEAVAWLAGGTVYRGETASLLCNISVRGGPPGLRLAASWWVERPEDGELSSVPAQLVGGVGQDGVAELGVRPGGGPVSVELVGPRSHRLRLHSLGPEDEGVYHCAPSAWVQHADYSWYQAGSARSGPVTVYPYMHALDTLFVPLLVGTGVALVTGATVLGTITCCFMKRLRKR
Protocol: (§1) To test cross reactivity of the L1, and L2 antibodies, CT26 cells with forced human, cynomolgus monkey, or mouse IGSF8 expression were generated by lentiviral delivery. For antibody binding assays based on cell-expressed antigens, 100,000 cells overexpressing the antigen were washed with PBS buffer containing 2% FBS, and then incubated with 100 μL of antibodies or IgG of different concentrations for 30 minutes on ice. Cells were then washed twice with wash buffer, and incubated with 100 μL of 1:100 anti-human Fc-PE antibody for 15 minutes on ice. Cells were washed twice with wash buffer and analyzed on a FACS analyzer (CytoFlex, Beckman). The MFI was plotted vs. antibody concentration. The EC50 cell binding potenct was calculated using nonlinear regression curve fit.

[3] = biological target: T3, cynomolgus monkey IGSF8 expressed on CT26 cells (cynomolgus monkey, UniProt Q969P0 28-613 (human entry)); assay: FACS on CT26 cells expressing IGSF8
T3 sequence: T2 sequence (looked up) with A14T, V63I, V125A, M147L, T148M, K167Q, S187A, F554L
Protocol: as §1

[4] = biological target: T4, mouse IGSF8 expressed on CT26 cells (mouse, UniProt Q8R366 26-611); assay: FACS on CT26 cells expressing mouse IGSF8, anti-human Fc-PE
T4 construct: whole, on cells
T4 sequence (looked up): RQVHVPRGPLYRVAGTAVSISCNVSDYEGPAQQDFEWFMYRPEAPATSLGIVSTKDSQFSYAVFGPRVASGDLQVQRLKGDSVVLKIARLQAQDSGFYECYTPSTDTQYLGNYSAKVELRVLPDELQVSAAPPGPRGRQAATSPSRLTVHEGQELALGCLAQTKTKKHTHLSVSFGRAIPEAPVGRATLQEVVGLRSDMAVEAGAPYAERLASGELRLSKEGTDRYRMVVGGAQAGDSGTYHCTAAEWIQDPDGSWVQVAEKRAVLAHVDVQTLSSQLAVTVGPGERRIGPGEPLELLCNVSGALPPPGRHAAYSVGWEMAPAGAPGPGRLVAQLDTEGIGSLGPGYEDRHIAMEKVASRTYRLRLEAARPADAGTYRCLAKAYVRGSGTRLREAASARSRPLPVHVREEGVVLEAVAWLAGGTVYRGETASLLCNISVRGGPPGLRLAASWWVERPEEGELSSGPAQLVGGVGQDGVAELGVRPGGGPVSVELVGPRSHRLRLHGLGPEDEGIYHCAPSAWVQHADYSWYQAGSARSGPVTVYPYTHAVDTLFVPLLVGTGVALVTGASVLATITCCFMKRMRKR
Protocol: as §1

[5] = biological target: T1, recombinant human IGSF8 extracellular …; assay: FACS blocking assay: antibody titrated against biotinylated IGSF8-hFc (1 ug/mL) binding to KIR3DL2 on CT26 cells, Streptavidin-PE
Protocol: CT26 cells with forced ectopic/exogenous human KIR3DL2 expression were incubated with biotinylated IGSF8-hFc recombinant protein (1 μg/mL) in the presence of the antibodies L1-20, L2-10, and a isotype control antibody. The binding of IGSF8-hFc-biotin to the Ct26 cells was determined using Streptavidin-PE by flow cytometry analysis (FIG. 39).

[6] = biological target: T1, recombinant human IGSF8 extracellular …; assay: FACS, IGSF8-hFc on CT26 cells, MFI normalized to Thy1.1
Protocol: KLRC1 also contains a ITIM motif in its intracellular domain, and was known to be a inhibitory receptor of NK or CD8⁺ T cells as part of a heterodimer with KLRD1 on the cell surface. […] Specifically, 100,000 CT26 cells overexpressing the antigens (KIRs or KLRs) were washed with PBS buffer containing 2% FBS, and incubated with 100 μL IGSF8 recombinant proteins or antibodies (5 μg/mL) for 30 minutes on ice. Cells were then washed twice with wash buffer, and incubated with 100 μL of 1:100 anti-human Fc-PE antibody for 15 minutes on ice. Cells were washed twice with wash buffer and analyzed on a FACS analyzer (CytoFlex, Beckman). In these experiments, the mean fluorescence intensity (MFI) of IGSF8 binding to different CT26 cells were normalized by the expression of different KLRs on CT26 cells using an anti-thy1.1 mAb via flow cytometry.

[7] = biological target: T4, mouse IGSF8 expressed on CT26 cells; assay: FACS on CT26 cells expressing IGSF8
Protocol: as §1

Row | Kd [1] [nM] | koff [1] [s⁻¹] | kon [1] [M⁻¹ s⁻¹] | EC50 [2] [µg/mL] | EC50 [3] [µg/mL] | binding result [4] | IC50 (read off the curve) [5] [µg/mL] | binding result [6] | EC50 [7] [µg/mL] | Binder
1 | 0.256 | 3.68e-05 | 144000 | 0.145 | 0.041 | no binding (tested: 40 ug/ml) | ~0.4 | – | – | B1
2 | – | – | – | 0.473 | 0.212 | no binding (tested: 40 ug/ml) | – | – | – | B2
3 | – | – | – | – | – | – | – | no binding | – | B3
4 | 0.0214 | 7.02e-06 | 329000 | 0.0537 | 0.0268 | – | ~0.3 | – | 0.0275 | B4
5 | – | – | – | 0.206 | 0.224 | – | – | – | 0.538 | B5
6 | – | – | – | – | – | – | – | no binding | – | B6
